From paper PMC10980815, “Cell surface patching via CXCR4-targeted nanothreads for cancer metastasis inhibition” (Nature Communications, 2024)
Ends that are not written are not given here. HPMA copolymer = HPMA copolymer made by RAFT copolymerization of HPMA with N-(3-aminopropyl)methacrylamide (APMA), bearing maleimide groups for grafting

Assay: Pharmacokinetics at each cycle of a four-round treatment regimen
Assay type: in vivo, female mice
Design: PK curves: unit not given here
Conditions: for AUC0-t / AUC0-∞ / MRT0-t / MRT0-∞ / T1/2z: same

What does the source list for “P-CM2-Cy3: Cy3-labeled P-CM2 (C(HPMA copolymer)YGGEVSALEKEVSALEKKNSALEKEVSALEKEVSALEK; also: Cy3 label on conjugate, position not given here)”?
PK curves (Round 3, Time 0.041667 Day, replicate 1): 171.135; PK curves (Round 3, Time 0.041667 Day, replicate 2): 180.496; PK curves (Round 3, Time 0.041667 Day, replicate 3): 188.668; PK curves (Round 3, Time 0.041667 Day, replicate 4): 205.584; PK curves (Round 3, Time 0.041667 Day, replicate 5): 224.681; PK curves (Round 3, Time 0.083333 Day, replicate 1): 156.708; PK curves (Round 3, Time 0.083333 Day, replicate 2): 161.465; PK curves (Round 3, Time 0.083333 Day, replicate 3): 162.063; PK curves (Round 3, Time 0.083333 Day, replicate 4): 168.293; PK curves (Round 3, Time 0.083333 Day, replicate 5): 190.32; PK curves (Round 3, Time 0.166667 Day, replicate 1): 118.152; PK curves (Round 3, Time 0.166667 Day, replicate 2): 137.258; PK curves (Round 3, Time 0.166667 Day, replicate 3): 138.998; PK curves (Round 3, Time 0.166667 Day, replicate 4): 139.637; PK curves (Round 3, Time 0.166667 Day, replicate 5): 146.663; PK curves (Round 3, Time 0.25 Day, replicate 1): 101.928; PK curves (Round 3, Time 0.25 Day, replicate 2): 105.033; PK curves (Round 3, Time 0.25 Day, replicate 3): 108.293; PK curves (Round 3, Time 0.25 Day, replicate 4): 115.298; PK curves (Round 3, Time 0.25 Day, replicate 5): 119.681; PK curves (Round 3, Time 0.333333 Day, replicate 1): 71.2229; PK curves (Round 3, Time 0.333333 Day, replicate 2): 72.9543; PK curves (Round 3, Time 0.333333 Day, replicate 3): 93.0071; PK curves (Round 3, Time 0.333333 Day, replicate 4): 101.069; PK curves (Round 3, Time 0.333333 Day, replicate 5): 102.809; PK curves (Round 3, Time 0.5 Day, replicate 1): 54.5332; PK curves (Round 3, Time 0.5 Day, replicate 2): 55.1656; PK curves (Round 3, Time 0.5 Day, replicate 3): 58.857; PK curves (Round 3, Time 0.5 Day, replicate 4): 63.5997; PK curves (Round 3, Time 0.5 Day, replicate 5): 67.2877; PK curves (Round 3, Time 1 Day, replicate 1): 18.8846; PK curves (Round 3, Time 1 Day, replicate 2): 19.9794; PK curves (Round 3, Time 1 Day, replicate 3): 34.0857; PK curves (Round 3, Time 1 Day, replicate 4): 37.3031; PK curves (Round 3, Time 1 Day, replicate 5): 39.9731; PK curves (Round 3, Time 2 Day, replicate 1): 13.6659; PK curves (Round 3, Time 2 Day, replicate 2): 15.2182; PK curves (Round 3, Time 2 Day, replicate 3): 16.959; PK curves (Round 3, Time 2 Day, replicate 4): 18.4095; PK curves (Round 3, Time 2 Day, replicate 5): 23.265; PK curves (Round 3, Time 3 Day, replicate 1): 5.299; PK curves (Round 3, Time 3 Day, replicate 2): 5.6755; PK curves (Round 3, Time 3 Day, replicate 3): 6.127; PK curves (Round 3, Time 3 Day, replicate 4): 11.4512; PK curves (Round 3, Time 3 Day, replicate 5): 11.8082; AUC0-t (Round 3): 2847.475 ± 463.394 ng·h/mL; AUC0-∞ (Round 3): 3060.689 ± 565.511 ng·h/mL; MRT0-t (Round 3): 17.779 ± 1.27 h; MRT0-∞ (Round 3): 23.927 ± 3.854 h; T1/2z (Round 3): 19.193 ± 3.042 h; PK curves (Round 4, Time 0.041667 Day, replicate 1): 230.725; PK curves (Round 4, Time 0.041667 Day, replicate 2): 194.218; PK curves (Round 4, Time 0.041667 Day, replicate 3): 209.902; PK curves (Round 4, Time 0.041667 Day, replicate 4): 229.24; PK curves (Round 4, Time 0.041667 Day, replicate 5): 229.61; PK curves (Round 4, Time 0.083333 Day, replicate 1): 173.583; PK curves (Round 4, Time 0.083333 Day, replicate 2): 157.544; PK curves (Round 4, Time 0.083333 Day, replicate 3): 163.249; PK curves (Round 4, Time 0.083333 Day, replicate 4): 167.214; PK curves (Round 4, Time 0.083333 Day, replicate 5): 205.861; PK curves (Round 4, Time 0.166667 Day, replicate 1): 141.479; PK curves (Round 4, Time 0.166667 Day, replicate 2): 127.721; PK curves (Round 4, Time 0.166667 Day, replicate 3): 129.082; PK curves (Round 4, Time 0.166667 Day, replicate 4): 138.936; PK curves (Round 4, Time 0.166667 Day, replicate 5): 150.211; PK curves (Round 4, Time 0.25 Day, replicate 1): 117.333; PK curves (Round 4, Time 0.25 Day, replicate 2): 116.423; PK curves (Round 4, Time 0.25 Day, replicate 3): 120.111; PK curves (Round 4, Time 0.25 Day, replicate 4): 124.299; PK curves (Round 4, Time 0.25 Day, replicate 5): 125.432; PK curves (Round 4, Time 0.333333 Day, replicate 1): 69.1458; PK curves (Round 4, Time 0.333333 Day, replicate 2): 73.8277; PK curves (Round 4, Time 0.333333 Day, replicate 3): 84.2185; PK curves (Round 4, Time 0.333333 Day, replicate 4): 100.254; PK curves (Round 4, Time 0.333333 Day, replicate 5): 118.152; PK curves (Round 4, Time 0.5 Day, replicate 1): 43.1042; PK curves (Round 4, Time 0.5 Day, replicate 2): 47.0545; PK curves (Round 4, Time 0.5 Day, replicate 3): 50.0192; PK curves (Round 4, Time 0.5 Day, replicate 4): 54.418; PK curves (Round 4, Time 0.5 Day, replicate 5): 70.7604; PK curves (Round 4, Time 1 Day, replicate 1): 21.2271; PK curves (Round 4, Time 1 Day, replicate 2): 23.1099; PK curves (Round 4, Time 1 Day, replicate 3): 27.0861; PK curves (Round 4, Time 1 Day, replicate 4): 30.0884; PK curves (Round 4, Time 1 Day, replicate 5): 41.0104; PK curves (Round 4, Time 2 Day, replicate 1): 4.911; PK curves (Round 4, Time 2 Day, replicate 2): 16.8258; PK curves (Round 4, Time 2 Day, replicate 3): 17.3047; PK curves (Round 4, Time 2 Day, replicate 4): 21.1219; PK curves (Round 4, Time 2 Day, replicate 5): 21.2086; PK curves (Round 4, Time 3 Day, replicate 1): 3.457; PK curves (Round 4, Time 3 Day, replicate 2): 6.287; PK curves (Round 4, Time 3 Day, replicate 3): 7.344; PK curves (Round 4, Time 3 Day, replicate 4): 8.892; PK curves (Round 4, Time 3 Day, replicate 5): 12.3135; AUC0-t (Round 4): 2805.642 ± 501.797 ng·h/mL; AUC0-∞ (Round 4): 3022.978 ± 666.243 ng·h/mL; MRT0-t (Round 4): 16.883 ± 2.739 h; MRT0-∞ (Round 4): 22.801 ± 5.68 h; T1/2z (Round 4): 18.712 ± 5.773 h
